We go through one molecule from US20050025760A1 (KEIO UNIVERSITY, published 2005).

What all share (assay): immunoprecipitation of point-mutated molecules (FIG. 5)
In one assay the target is T1, Dsg1-M7 (human, UniProt Q02413 50-545, I3V; A7K; A8P).
T1 construct: extracellular domain; also called hDsg1-M7
T1 sequence (looked up): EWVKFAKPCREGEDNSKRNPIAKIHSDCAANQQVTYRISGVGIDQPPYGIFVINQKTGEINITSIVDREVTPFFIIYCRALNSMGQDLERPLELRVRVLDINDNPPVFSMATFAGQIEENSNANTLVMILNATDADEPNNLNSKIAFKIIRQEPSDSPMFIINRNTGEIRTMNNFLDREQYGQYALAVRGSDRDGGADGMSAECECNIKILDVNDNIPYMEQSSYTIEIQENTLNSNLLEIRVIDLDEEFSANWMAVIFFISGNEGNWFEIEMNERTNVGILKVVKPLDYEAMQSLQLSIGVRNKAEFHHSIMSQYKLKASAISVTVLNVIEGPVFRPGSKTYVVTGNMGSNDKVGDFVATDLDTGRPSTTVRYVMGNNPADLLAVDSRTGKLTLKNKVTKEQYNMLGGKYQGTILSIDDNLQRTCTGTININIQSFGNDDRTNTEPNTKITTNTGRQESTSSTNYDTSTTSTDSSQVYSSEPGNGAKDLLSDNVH

For the next assay, the target named is T2, Dsg3-M3 (human, UniProt P32926 50-615, V53I; D54N; K55Q; N56K).
T2 construct: extracellular domain; also called point-mutated human Dsg3 molecule M3; not shown: His tag of vector pEVmod-His
T2 sequence (looked up): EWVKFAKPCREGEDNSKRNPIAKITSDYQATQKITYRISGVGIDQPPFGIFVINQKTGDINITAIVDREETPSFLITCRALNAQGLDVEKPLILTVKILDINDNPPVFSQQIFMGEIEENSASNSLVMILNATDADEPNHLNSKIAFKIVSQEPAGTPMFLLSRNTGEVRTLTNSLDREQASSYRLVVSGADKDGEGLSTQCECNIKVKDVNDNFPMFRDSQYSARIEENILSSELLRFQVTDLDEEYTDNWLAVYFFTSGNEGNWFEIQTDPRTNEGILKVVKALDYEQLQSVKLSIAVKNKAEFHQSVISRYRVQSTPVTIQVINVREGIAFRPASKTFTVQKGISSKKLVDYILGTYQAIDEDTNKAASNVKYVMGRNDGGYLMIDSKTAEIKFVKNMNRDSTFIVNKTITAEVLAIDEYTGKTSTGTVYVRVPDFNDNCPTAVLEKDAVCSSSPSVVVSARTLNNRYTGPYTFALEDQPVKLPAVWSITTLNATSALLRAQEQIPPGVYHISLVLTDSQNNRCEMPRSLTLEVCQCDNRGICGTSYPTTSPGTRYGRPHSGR

A further assay has as its target T3, Dsg3-M4 (human, UniProt P32926 50-615, E70V; S73F).
T3 construct: extracellular domain; also called point-mutated human Dsg3 molecule M4; not shown: His tag of vector pEVmod-His
T3 sequence (looked up): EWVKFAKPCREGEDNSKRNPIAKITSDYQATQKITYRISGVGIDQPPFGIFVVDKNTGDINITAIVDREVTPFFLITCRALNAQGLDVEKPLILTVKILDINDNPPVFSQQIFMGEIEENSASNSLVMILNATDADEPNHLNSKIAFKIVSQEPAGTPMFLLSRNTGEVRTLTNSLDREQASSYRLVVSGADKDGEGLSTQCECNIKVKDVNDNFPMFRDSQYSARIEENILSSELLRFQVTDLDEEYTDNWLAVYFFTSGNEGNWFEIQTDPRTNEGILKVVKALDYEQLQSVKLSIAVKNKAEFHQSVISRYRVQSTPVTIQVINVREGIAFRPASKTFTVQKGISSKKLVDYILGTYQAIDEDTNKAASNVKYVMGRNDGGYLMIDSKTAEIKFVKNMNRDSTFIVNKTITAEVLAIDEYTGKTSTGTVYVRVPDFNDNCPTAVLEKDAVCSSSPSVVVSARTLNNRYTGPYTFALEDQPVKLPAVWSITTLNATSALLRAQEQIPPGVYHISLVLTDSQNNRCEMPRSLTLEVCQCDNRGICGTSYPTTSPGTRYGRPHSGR

The target in a further assay is T4, Dsg3-M5 (human, UniProt P32926 50-615, L75I; T77Y).
T4 construct: extracellular domain; also called point-mutated human Dsg3 molecule M5; not shown: His tag of vector pEVmod-His
T4 sequence (looked up): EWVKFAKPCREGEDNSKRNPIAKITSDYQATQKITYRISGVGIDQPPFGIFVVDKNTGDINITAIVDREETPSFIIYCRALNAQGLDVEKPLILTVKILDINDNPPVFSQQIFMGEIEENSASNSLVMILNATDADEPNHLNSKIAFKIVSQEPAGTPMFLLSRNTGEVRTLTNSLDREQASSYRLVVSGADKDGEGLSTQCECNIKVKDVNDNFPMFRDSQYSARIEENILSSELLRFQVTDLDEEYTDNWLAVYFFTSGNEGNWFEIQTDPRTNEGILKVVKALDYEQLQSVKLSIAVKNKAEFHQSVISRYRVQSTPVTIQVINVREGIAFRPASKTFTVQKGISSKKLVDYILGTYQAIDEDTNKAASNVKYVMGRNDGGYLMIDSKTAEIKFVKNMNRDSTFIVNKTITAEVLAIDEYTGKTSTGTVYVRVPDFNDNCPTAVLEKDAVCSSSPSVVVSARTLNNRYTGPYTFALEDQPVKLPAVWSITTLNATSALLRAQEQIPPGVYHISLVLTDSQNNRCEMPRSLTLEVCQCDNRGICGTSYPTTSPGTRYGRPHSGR

B1: anti-Dsg3 monoclonal antibody AK23 (antibody, mouse IgG1, V domains shown)
VH: QVQLQQSGTELVKPGASVKLSCKSSGYTFTSYWINWVKQRPGQGLEWIGNINPSNGGINYNEKFKSKATLTVDKSSSTAYMQLKSLTSEDSAVYYCARGGYDGYPWGQGTTVTVS
VL: DIQMTQSPKFLLVSAGDRVTITCKASQSVSYDVAWYQQKPGQSPKLLISYASNRYTGVPDRFTGSGYGSDFTFTISTVQTEDLAVYFCQQDYSSPWTFGGGTKLELKR
notes: Mouse IgG1 kappa hybridoma antibody
As for B1, the binding result in the assay with Dsg1-M7 is reported as “no binding”; in the assay with Dsg3-M3, “binds”; with Dsg3-M4, “binds”; with Dsg3-M5, “binds”.
